Measured values taken from a protein production outcome set (Wang et al. 2014).

Experiment: label from the status in PepcDB records

| Sequence | protein production |
| --- | --- |
| MKYEYPAELPVSAARDEIASAVKRSQVVIVSGQTGSGKTTQLPKILLELGRGTHGKQIVHTQPRRIAARTVAERIASEMGVKLGDEVGYQVRFTDESSPGTRLRVVTDGILLAQIQRDPKLTRYDTIIIDEAHERSLNIDFLLGYLTALLPQRRDLKLIITSATIDSVKFQEHFEHALHEKVPVIEVSGRTFPVQVVYEPLGTAPALMREVPGFAVGARPGDADYDELASAIAESDSDRPRGRSGASYADDGITDMPTAVARACAELVIHSSHERGPRDILVFASGERDIHEFEAALRHHYGPRADDMRRPDAIEIMPLFARLSAADQHKVFESHLHQRIVIATNVAETSLTVPGIRYVVDPGSARISRYSKTAKVQRLPIEPISQASADQRSGRCGRVADGIAIRLYSREDYETRPRFTEPEILRTSLGAVVLHMLSVGVARTAEDVTNFGFIDPPDMKAVSDGFNELTELKAIGRKRGEVTLTHTGRQLARIPIDVRLGRMVIEAAKTGSPNLLAQVLVVVAFLSLQDPRERPDDKREDADRIHNRYADETSDFLTALNIWDRVFQADGDPSNNALRRICKTEYFSWLRMRQWKDLVSQLRQMCKELKFKVGDPLPASRPGLEIRQLPLNQQAAHSLCCAWDADGIHKSMLAGLLSMMGMQVVREPKASDFAGLTGSARARAMKRAQKQSKNDYQGARGTRFALFPASAVAKKTPSWVMSTELVETSRLWARYSAAIDPAWAEPLAGQLTRTTYAEPHWSGSRGSAVATARVLLYGLPIVQDRAVQWGRINPLEARDFLIRQGLVEGDIQQRFSYDDFVGKNRDILEDAADDASRTRQLADTVSDEDLFDFYNAVIPNDVTSVADLAKWWKSEHDRQPNLLDFDPAKVERLASSDSVSLDDYPDHWHTTGSDGQPIDLRLSYVYDPADPADGVTVHVPLKALSRITPDQFTWNVPGLLDELILSMIKALPKQLRVQFVPAPDAARAIRDWIDEHYPDLPGSGSQQKPNLPPVDEDGTTVGWPDLAHVFTKAAIATKGAQIHPEVLGPELVERLSPYLRVTFSVEQQLPAGKHPRGRRHARGPIKVLGVSKDLKALQRKFAAQAEASARQMVKKQADQAGEQGKLVSQANLLHKAGATTESRATMLWRGALDALRLPAERISSRWLGTEALMLASAPYKSTKDLVEDLQLATVKRLMPNVDRLSDDEALANAVLDVREVYEDTVYQVAHDVIAVLKAYAEVDKATGGKADLPMLSVLQSIRDHIATLVYPGFIGRTPPDALKSLSRYLRADLSRLNKAKTDKNRDVKWAWQADEARQVVDKALARAKAEPAGPKHEALMKQAEQARWMLEEFYVSLWAQELGTKGPASLNRIKKALA | failed |
| MKYIIIGLGNYGHVLAEELSTLGHEVIGADLDEGRVDSIKDKIATAFVIDATDEQSLSVLPLNSVDMVIVAIGENFGASIRVVAMLKQKQVKHIYARAIDGVHKAVLEAFGLEKILTPEEDAARSLVQLLDFGTKMETFRVDSEYYVVKFNVPEKFVGYFVNELNLDEEFNLKLIGLKRSNTIKNCLGISLVEHKVVNELPEDAKIRPDDVLVCYGKYSDFQKLWKALLEHHHHHH | not failed |
| MKYISPGFVDAHSHIGMIPDGLEWEFQEANDFYSPIAPHLRAVDGFDPYDEAFKEAIAGGVTTVATGPGSANVMGGIGLLAKTYEEGFEKIIKPEAFIKMALGPKRPREYKSKYPYPTTRMGTVALMRTWFKRAREFMEGKIKTDNIDEEEIEMLRLLARALKREIQVKIHLSTSPDEIYAAIRIIKEFNLNATIDHAFGSQLVADMLSREGIPVIYGPPMITRIASFFRYVDDKAPVLLFKKGVNVSIMTDHPVLPEKHLRLLAAVVARNGLSLDDALKLITINPAKALGIDRFVGSLEHHHHHH | failed |
| MKYIVAVNASPRSGWNTSQLVEAAAKGAKEAGATVDIIDLYKLEPFQGCISCFGCKLPRTFGRCVSKDGLSEVLDKIRKADGLILGSPNYLGNLTAGFRALYERLIFQSLTYNKERPNCNEHMIPVLLITTSNCDESIYDKIGYTSMLEGYKQMLERFVGPLEHHHHHH | failed |
| MKYKAAIFDMDGTILDTSADLTSALNYAFEQTGHRHDFTVEDIKNFFGSGVVVAVTRALAYEAGSSRESLVAFGTKDEQIPEAVTQTEVNRVLEVFKPYYADHCQIKTGPFPGILDLMKNLRQKGVKLAVVSNKPNEAVQVLVEELFPGSFDFALGEKSGIRRKPAPDMTSECVKVLGVPRDKCVYIGDSEIDIQTARNSEMDEIAVNWGFRSVPFLQKHGATVIVDTAEKLEEAILGE | not failed |
| MKYPIVPLTKFGLFRAQTYAVLKRPYLVTALVSYFMVALLVIIYLNKAPSFTSDMEMVLPGTGSSNSVSLDNVGQVVSQTNTPFSGGGFNPRVNYKEMLSSRGVRARAAKKLHLSLEDLGEPRIKLTEQTSIISLEMSANGQELAQAKTLALYESLQDELNNLRADEVLRRDQSIEQVLDRYRERMNITRNAIVDFQQRSIVVSTDQMDQLVRTLSGVREKHLYVKAETKQLQEYIYQLSDELGVSPKLAGQAFALQSDVEFRAYITELKESITQLTEYSSRWGVNHPKVKAQQKRLNFTRISINERSSQMYGVNSNEIFNSLNLDLNPKRSELFADLIDAYAKQKGQESMLEDLGRSALHLGDQLKIYSREIVELERLQREFNMAEAIFTSAAARLEASKSDVFASYPVLQMLTTPSYPMKQSSPKNIIAFIGAITGFIFITLGLIILSQRNKLIQIILKKEETTSSNS | failed |
| MKYRFIDHTADIAFEVYGSNLRELFENAALAFYDAFVDTSGIGIEREVGVECEGEDVEITLYRWLNELLYLFDTEFFAAKDVEVEVEEGDGVKASGKLRGGRFSAEMVKVEPKAITLHKFRVEKTDKGYVAFVVVDI | failed |
| MKYTQSFCFVSVIVLSSSVHLHGQNNKMNVLLIIADDMRPELGCYGIEDIVTPRLDSLARYATVFQNAYCNIPVSGASRASLFTGMYPRYPNRFTAFDASAEKDCPEALSLPECFKKNGYYVVSNGKVFHNITDHADSWSEAPWRVHPDGYGKDWAEYNKWELWQNEESSRYVHPKTLRGPFCESADVADTTYIDGRVAQKTIADLRRLHKKEKPFFLACGFWKPHLPFNAPKKYWDLYRREEIHLAQNPYRPKALPKQVTSSGEIRGYGKFVTTKDETFQREAKHGYYACVSYIDAQIGLILDELDRLGLSENTIVVILGDHGWHLGEHGFWGKHNLMNHATRAPLIVRVPHCRGGKAKGIVEFVDIYPTLCELCGVPMPKDQLQGKSFVPILQDSGKKTKQYAFIQWKGGYNIVSEQYSSTIWLQGDSVVARMIFDRQLDASENENKVHCPYLSRERDKLEAQIKIRKSQLLEHHHHHH | failed |
| MKYTVYLFDFDYTLADSSRGIVTCFRSVLERHGYTGITDDMIKRTIGKTLEESFSILTGITDADQLESFRQEYSKEADIYMNANTILFPDTLPTLTHLKKQGIRIGIISTKYRFRILSFLRNHMPDDWFDIIIGGEDVTHHKPDPEGLLLAIDRLKACPEEVLYIGDSTVDAGTAAAAGVSFTGVTSGMTTAQEFQAYPYDRIISTLGQLISVPEDKSGCPL | not failed |
| MLAAGEGKRMGACKPLLPLGASTVLAHVAKTLLPAINGPLVVVTGHHGDAVTAEALRLSLETAENTTPQDGMFSSVRTGIAHIVGRVDGVLVLPADIPFVRTATCALVVEAFRRHRAAVTYPTLCGERGHPPLLDADTMRAVLASSGDGGLRGVLLALERQGGTTHDVAVADEGIVTDMDTPADHAQLVARHPLRHIPTPREREALLEMAGTPARVRAHCRMVARAALAMAAHLEATRRGFISPFARQSAPHGISTSGAHAEPRSVPASTTTHAVHAEGNTTLPHTATAHVACPPPDVTTGPMPTCQPGHMPDHMPGTARDAAQQAPAATASPQRLDRPLIHAAATLHDICKGTQRHEAAGGALLTRHGFPEVGSIIAAHRDIAPQAGPEIDEAALVMLADKYVRGVSLIPVEERFDERLREWAHRPDVACDIAARKARVLMVRDLFESETATELFPLLQRKVRRGTFLEHHHHHH | failed |
| MLACAIALRLAAAVAAPVDSPTVDVAPPAPAEVAPPGPGRTAAPDLSAPPPPPADRPGPWRVYGAAAAGAAASDVLFAGIFAIGMVQLFGDLWDGEASADAGGLTLALVGLGGFLAVTPAVTVWAAQRVAGRERTAAAYWACFGVRLLGFAAANAFPAATLATELVLAPWVVSRIVMSGAPAATPLRPEVPAPAGADGPATRARPLRDPALAWR | failed |
| MLAERRPAVTPTDGAQVLKALDAQAALLPYALGVFAVSLPLFVWVGSFAANPLWMTASFAIFAINWGVFYAAVSWIRDEPSQDLARRARVQVLCGVLWALAVMQISAFAHNAGPARETLLLLATAGAVLCAFFAAPYLPGLLIIAPLAAAGPLLAQFSSADSRHAGELTFGATALAMTLALILNRMFRRQHDLAISHEQLVVERLRVLEAAERTARSKSDIVATLSHEIRNGLTGVTHVLAAAAGRGGRAAPSREQLNAALDAAQDLIAVLNATLDSETAESGRLQVDARPFDPVRLVQDLALLDKPHAAAKGLELSVHVDPLLRERAKGAAIADALRTRQIVSNLLGNAVKYTVRGRVEVRLELRDDRIAIEVADTGPGLSTEELEQAFEPFRRVERTGAGVNGAGLGLSLSRQLARLMGGALEARSAVGVGSCFTLTLPFDLGAKDEQAEALDTAVAEASGAPRALRVLIAEDDALNAAMLRAVLEQLGHQVVHAANGRRAADLAKIAEFDLLMLDHRMPVMDGPEAASSLRQGDGPNRQTPIVAVIDGDAEEAAEFLEAGAEIVLRKPVSVAGVARALADAAALERTDPAKVAA | failed |
| MLAIRRGASMPPLNRSDDLMPGIDEIPERRDEVSLGDLLLEVLRFYQQFGRLLIPLAVLCGVLAGVVVATRPLYAVTALLETPQMSLEQWRKLQPMLADRQLVAASLASMTELPPEQRERLQRAFVLKKYWDTRVTYRSAVERDDIRQQVNIDAKSVGALGLEVSLYARDDAAANQQLDAIAQHVRQVVLWGGLRDYLDSLRQQTLEQRPQLQIDQIQQRYAIEQNERQAADMQQLLERYPELRRNEVNTVVSVGDGGGRYLSPLAQIVALQSTIAGTRTTLRQVERELEQLDGKQRFLARVDQRAPGLHLGRALADWVQSCRRAVFGSGTPSGSALSQVASEIDLALSQQRWRAQLVRYRAIPALSPAPVPSRRPALVALAVFLGVLLVASLGLAMYVIARRNGDRHASWSAHADPLFAWLPQRMRGLLLGPTDARPLGSG | failed |
| MLAKVLKKRGAVLRGDFVLSSGRRSSVYIDMRRLLGDESSYSVALDLLLEVGGQDLARSSAVIGVATGGLPWAAMLALRLSKPLGYVRPERKGHGTLSQVEGDPPKGRVVVVDDVATTGTSIAKSIEVLRSNGYTVGTALVLVDRGEGAGELLARMGVRLVSVATLKTILEKLGWGGE | not failed |
| MLAPERIHPALWRATQLAHGPTRKLPTGYADLSAQLPGGGWPLGALVELLLPQPGSGEIRLLRPALAQLEARRAIALVQPPHAPHIASWASWRLDPRQLLWVAPERPADALWAAEQILKAGSCAALLCWLPQVRPESLRRLHLAAQGGDALFVALRPAAAEQHASPAVLRLALAPAPGGLSIRIVKRRGPACEHPVHVGLEAGAGLSVFPAPHAPLDRRLPAQPVAGRRTPALVSLEHHHHHH | not failed |
| MLARALFFVVLSTATFLFLWQFPSTGAQSIPHLDKLVHFGIFFVLALTFHRAFALSAKLSLLILVCYGFLIEIAQSYAPGRSADVYDWLADASGVVAYFILHHLLSKKSR | failed |
| MLASLEARYPGLAFAWPRPGVLEITFRGEKLXAMPPALHRGLARVWRDLEAVEGVRAVLLRGEGGVFSAGGSFGLIEEMRASHEALLRVFWEARDLVLGPLXFPRPVVAAVEKVAVGAGLALALAADIAVVGKGTRLLDGHLRLGVAAGDHAVLLWPLLVGMAKAKYHLLLXEPLTGEEAERLGLVALAVEDEKVYEKALEVAERLAQGPKEALHHTKHALXHWYRSFLPHFELSLALEFLGFSGKELEEGLKALKEKRPPEFP | not failed |
| MLAVFTKSVAGVKLFGMMYPVLERSENLPTDDSIDAIKEIAKALQSVLFKLHINGYSSLLHPLGVNNVDFILKFYVVKDGENDSLRVINVYHKLCGEAEDSWLEIVNNFRGEFSFISMMQRIEASLLLINAVKCYVVSDTLGNLFFRNDYNFGTGGSVCYVHIFGGHYLASGKGLRKLQLPLMETKMEPLIPDDIV | failed |
